Here are results for one protein from article PMC3060920, “Structural Analysis of a Repetitive Protein Sequence Motif in Strepsirrhine Primate Amelogenin” (PLoS ONE, 2011).

The data set concerns the molecule itself. In words: dynamic light scattering; self-assembly into nanospheres; 0.4 mg/mL, pH 8, 25 mM Tris buffer, 22°C; Rayleigh sphere model, sphere-equivalent hydrodynamic radii.

B1: rp(H)M180, recombinant His-tagged mouse amelogenin M180 (natural protein, UniProt P63277-1 17-196, looked up)
chain: MPLPPHPGSPGYINLSYEVLTPLKWYQSMIRQPYPSYGYEPMGGWLHHQIIPVLSQQHPPSHTLQPHHHLPVVPAQQPVAPQQPMMPVPGHHSMTPTQHHQPNIPPSAQQPFQQPFQPQAIPPQSHQPMQPQSPLHPMQPLAPQPPLPPLFSMQPLSPILPELPLEAWPATDKTKREEVD
notes: Assembles into nanospheres at pH 8; also called wild type mouse amelogenin; mAmelx; source: E. coli (pQE30), purified (Ni-NTA); not shown: poly-histidine, N-terminal, kept
Take B1: the binding result was “binds”.
